B1: Hammerhead Ribozyme (parent)
chain: ACCGGAUGUGCUUUCCGGUCUGAUGAGUCCGUGAGGACGAAACAG

The series covers variants of B1. Description: self-cleavage, relative activity (ratio to wild type); higher = more cleavage; co-transcriptional.
For the variant G27A A42G, the self-cleavage is 0.321.
Next, G27A A42U: 0.301; G27A A42C: 0.308; G27A U28G: 0.695.
Next, G27A U28A: 0.643; G27A U28C: 0.645.
As for G27C G33U, the figure is 0.686; as for G27C G33A, 0.864.
Turning to G27C G33C, the self-cleavage worked out at 0.723.
As for G27A G33C, the figure is 0.675.
Next, G27A G33U: 0.976.
As for G27A G33A, the figure is 1.1; as for U28A A40G, 0.394.
Consider U28A A40C, for which the self-cleavage was 0.352.
Next, U28A A40U: 0.41.
As for G27U A37U, the figure is 0.521; as for G27U A37C, 0.308.
Next, G27U A37G: 0.501; U28A A34C: 0.623; U28A A34G: 0.516.
For U28A A34U, the self-cleavage stood at 0.678.
As for G27A U32G, the figure is 0.628.
Next, G27A U32A: 0.736; G27A U32C: 0.803; G27U G33A: 0.754.
As for G27U G33U, the figure is 0.535.
As to G27U G33C, the self-cleavage is 0.484.
As for U28G G35U, the self-cleavage came out at 0.58.
Next, U28G G35A: 0.384; U28G G35C: 0.562; U28C G31C: 0.769.
As for U28C G31U, the self-cleavage is 0.854.
As for U28C G31A, the figure is 1.03; as for U28A A44U, 0.402; as for U28A A44G, 0.596.
Regarding U28A A44C, the self-cleavage came to 0.38.
U28C C29G: the self-cleavage amounted to 0.583.
As for U28C C29U, the figure is 0.688; as for U28C C29A, 0.688; as for U28A C30G, 0.384.
Next, U28A C30A: 0.376.
In the case of U28A C30U, the self-cleavage stood at 0.562.
As for U28C G36U, the figure is 0.591; as for U28C G36C, 0.297.
As for U28C G36A, the figure is 0.634; as for U28C C30A, 0.826; as for U28C C30U, 0.573.
Next, U28C C30G: 0.322; U28G A42G: 0.264; U28G A42C: 0.24.
Consider U28G A42U, for which the self-cleavage was 0.311.
As for U28G A44G, the figure is 0.673.
Next, U28G A44U: 0.397; U28G A44C: 0.371.
As to G27C U28A, the self-cleavage is 0.508.
As for G27C U28G, the figure is 0.389; as for G27C U28C, 0.431.
On to U28G C38G, for which the self-cleavage turned out to be 0.542.
Next, U28G C38U: 0.858; U28G C38A: 0.64; G27U G31C: 0.462.
Turning to G27U G31A, the self-cleavage is 0.529.
Next, G27U G31U: 0.474; G27A C30G: 0.458.
As for G27A C30U, the figure is 0.69; as for G27A C30A, 0.529; as for G27C C43U, 0.399.
For the variant G27C C43A, the self-cleavage is 0.291.
Consider G27C C43G, for which the self-cleavage stood at 0.26.
For C29A A41C, the self-cleavage came to 0.355.
Next, C29A A41G: 0.339; C29A A41U: 0.301.
For U28G G31A, the self-cleavage stood at 0.85.
Next, U28G G31C: 0.987; U28G G31U: 0.932.
Next, U28G A41C: 0.348.
Next, U28G A41G: 0.421; U28G A41U: 0.338.
With U28C A40G, the self-cleavage was 0.356.
Next, U28C A40U: 0.307; U28C A40C: 0.44.
For C29A A40U, the self-cleavage came out at 0.314.
Regarding C29A A40G, the self-cleavage was found to be 0.294.
Next, C29A A40C: 0.354; U28A G39C: 0.382; U28A G39A: 0.422.
Next, U28A G39U: 0.301; G27U A41G: 0.312; G27U A41C: 0.328.
Take G27U A41U: the self-cleavage amounted to 0.347.
Next, G27U: 0.561; G27C: 0.843.
With U28C A34U, the self-cleavage stood at 0.723.
Next, U28C A34G: 0.934; U28C A34C: 0.684.
As for U28G, the figure is 0.873.
With U28C, the self-cleavage amounted to 1.08.
Next, U28A: 0.822; G27C G36C: 0.257.
Take G27C G36A: the self-cleavage was 0.392.
As for G27C G36U, the figure is 0.371; as for G27A C29G, 0.412.
With G27A C29A, the self-cleavage was 0.42.
As for G27A C29U, the figure is 0.598; as for U28C C38G, 0.575; as for U28C C38U, 1.01.
As for U28C C38A, the figure is 0.789.
As for G27A G35U, the figure is 0.411; as for G27A G35C, 0.438; as for G27A G35A, 0.505.
Regarding U28G A37U, the self-cleavage stood at 0.843.
Next, U28G A37C: 0.919; U28G A37G: 0.45; G27U G36C: 0.304.
With G27U G36U, the self-cleavage was 0.328.
Next, G27U G36A: 0.303.
Next, G27U G39U: 0.297; G27U G39A: 0.341; G27U G39C: 0.314.
As for U28A C29U, the figure is 0.774.
On to U28A C29A, for which the self-cleavage turned out to be 0.682.
Next, U28A C29G: 0.445.
As for G27A G45A, the figure is 0.416; as for G27A G45C, 0.378.
Next, G27A G45U: 0.472; C29A A34G: 0.518.
Consider C29A A34U, for which the self-cleavage was 0.563.
Next, C29A A34C: 0.494.
As for U28C G33C, the self-cleavage worked out at 0.906.
As for U28C G33U, the figure is 0.973; as for U28C G33A, 1.16.
As for U28C A44U, the figure is 0.599; as for U28C A44G, 1.11.
Next, U28C A44C: 0.497; U28C G39A: 0.291; U28C G39U: 0.291.
Take U28C G39C: the self-cleavage worked out at 0.371.
Next, U28A G35C: 0.435.
As for U28A G35U, the figure is 0.489.
As for U28A G35A, the self-cleavage was 0.405.
Regarding U28G A40U, the self-cleavage came out at 0.323.
For U28G A40C, the self-cleavage was 0.383.
As for U28G A40G, the self-cleavage was found to be 0.261.
Consider G27U U32C, for which the self-cleavage was determined as 0.495.
Take G27U U32G: the self-cleavage is 0.417.
Next, G27U U32A: 0.547.
For the variant U28G G33U, the self-cleavage stood at 0.972.
As for U28G G33A, the figure is 1.02; as for U28G G33C, 1.2.
Consider G27C A41G, for which the self-cleavage amounted to 0.457.
As for G27C A41U, the figure is 0.333; as for G27C A41C, 0.339; as for G27U C43A, 0.374.
Regarding G27U C43G, the self-cleavage was 0.268.
Next, G27U C43U: 0.366; G27C A34C: 0.411; G27C A34U: 0.436.
Next, G27C A34G: 0.653; G27A A40G: 0.341; G27A A40U: 0.304.
As for G27A A40C, the figure is 0.428; as for G27U A42U, 0.315; as for G27U A42G, 0.261.
Take G27U A42C: the self-cleavage was found to be 0.294.
Next, G27A A44U: 0.53; G27A A44C: 0.373; G27A A44G: 1.07.

Values taken from the RNAGym collection of RNA variant scans (doi:10.7554/elife.80360).
